# According to patent publication US20080193450A1 (ISTITUTO SUPERIORE DI SANITA, published 2008):
# B1: ADR4-3 (other)
# chain: EVQLLESGGGLVQPGGSLRLSCAASGFTFAQYRMAWVRQAPGKGLEWVSQINAQGTQTGYADSVKGRFTISRDNSKNTLYLQMNSLRAEDTAVYYCAKWVGGARYTFDYWGQGTLVTVSS
# B2: ADR4-11 (other)
# chain: EVQLLESGGGLVQPGGSLRLSCAASGVIFTDQTMGWVRQAPGKGLEWVSAIKTRDGSTYYADSVKGRFTISRDNSKNTLYLQMNSLRAEDTAVYYCARFLRPNASRGSAREAQIHSWGQGTLVTVSS
# B3: ADR4-6 (other)
# chain: EVQLLESGGGLVQPGGSLRLSCAASGFRVSNYDLTWVRQAPGKGLEWVSTISATNGSTYYADSVKGRFTISRDNSKNTLYLQMNSLRAEDTAVYYCAAVTWWLLRHNDNLGFWGQGTLVTVSS
# B4: ADR4-10 (other)
# chain: EVQLLESGGGLVQPGGSLRLSCAASGVSVSAYTMSWVRQAPGKGLEWVSAILKKNGSTYYADSVKGRFTISRDNSKNTLYLQMNSLRAEDTAVYYCAGRPSVTFGGPGKRYDYHFQYWGQGTLVTVSS
# B5: ADR4-5 (other)
# chain: EVQLLESGGGLVQPGGSLRLSCAASGDRISSEFMGWVRQAPGKGLEWVSAIYKPNGSTYYADSVKGRFTISRDNSKNTLYLQMNSLRAEDTAVYYCARGRARRTESTYQLRYWGQGTLVTVSS
# B6: ADR4-9 (other)
# chain: EVQLLESGGGLVQPGGSLRLSCAASGVRLSHQVMGWVRQAPGKGLEWVSAIRSSDGSTYYADSVKGRFTISRDNSKNTLYLQMNSLRAEDTAVYYCAGWRSAKSQMHYWGQGTLVTVSS
# B7: ADR4-13 (other)
# chain: EVQLLESGGGLVQPGGSLRLSCAASGFSISYKNMAWVRQAPGKGLEWVSAIKAANGSTYYADSVKGRFTISRDNSKNTLYLQMNSLRAEDTAVYYCATGSQKKRTYTFDFWGQGTLVTVSS
# B8: ADR4-4 (other)
# chain: EVQLLESGGGLVQPGGSLRLSCAASGFTFLDYQMSWVRQAPGKGLEWVSGISRSGNKTKYADSVKGRFTISRDNSKNTLYLQMNSLRAEDTAVYYCAKWAGLNRHDFDYWGQGTLVTVSS
# B9: ADR4-7 (other)
# chain: EVQLLESGGGLVQPGGSLRLSCAASGYSVTYQNMAWVRQAPGKGLEWVSTITVPNGSTYYADSVKGRFTISRDNSKNTLYLQMNSLRAEDTAVYYCAGLGEVLRDGNANVQFWGQGTLVTVSS
# B10: ADR4-12 (other)
# chain: EVQLLESGGGLVQPGGSLRLSCAASGDTVSSKAMAWVRQAPGKGLEWVSGIFIPNGSTYYADSVKGRFTISRDNSKNTLYLQMNSLRAEDTAVYYCAAKQRAVLSRWGSSTEFGSWGQGTLVTVSS
# B11: ADR4-8 (other)
# chain: EVQLLESGGGLVQPGGSLRLSCAASGFSLSYKVMGWVRQAPGKGLEWVSAINRENGSTYYADSVKGRFTISRDNSKNTLYLQMNSLRAEDTAVYYCAGFARRGAPHSASVEFWGQGTLVTVSS
# Target: native, highly purified SAP2 preparation (Candida albicans, UniProt P0CS83 57-398)
# Assay: cell-based or functional assay
# Chain of native, highly purified SAP2 preparation (P0CS83 57-398 limits assumed): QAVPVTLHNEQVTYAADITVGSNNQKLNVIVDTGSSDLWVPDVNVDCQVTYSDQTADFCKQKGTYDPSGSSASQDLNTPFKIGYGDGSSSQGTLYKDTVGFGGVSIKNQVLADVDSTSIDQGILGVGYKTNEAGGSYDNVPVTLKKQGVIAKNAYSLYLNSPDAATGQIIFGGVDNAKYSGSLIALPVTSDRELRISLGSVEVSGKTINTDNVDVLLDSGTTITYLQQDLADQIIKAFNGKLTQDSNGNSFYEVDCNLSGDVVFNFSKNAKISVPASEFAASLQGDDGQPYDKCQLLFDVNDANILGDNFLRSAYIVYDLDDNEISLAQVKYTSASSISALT
molecule,measurement,value
pepstatin A (peptide),"% Inhibition (BSA degradation, proteinase enzyme assay)",100%
same,"ΔOD/ml/min (BSA degradation, proteinase enzyme assay)",0.36 ΔOD/ml/min
B1,"% Inhibition (BSA degradation, proteinase enzyme assay)",40%
same,"ΔOD/ml/min (BSA degradation, proteinase enzyme assay)",0.66 ΔOD/ml/min
B2,"% Inhibition (BSA degradation, proteinase enzyme assay)",29%
same,"ΔOD/ml/min (BSA degradation, proteinase enzyme assay)",0.8 ΔOD/ml/min
B3,"% Inhibition (BSA degradation, proteinase enzyme assay)",78%
same,"ΔOD/ml/min (BSA degradation, proteinase enzyme assay)",0.5 ΔOD/ml/min
B4,"% Inhibition (BSA degradation, proteinase enzyme assay)",13%
same,"ΔOD/ml/min (BSA degradation, proteinase enzyme assay)",0.83 ΔOD/ml/min
B5,"% Inhibition (BSA degradation, proteinase enzyme assay)",0%
same,"ΔOD/ml/min (BSA degradation, proteinase enzyme assay)",1 ΔOD/ml/min
B6,"% Inhibition (BSA degradation, proteinase enzyme assay)",5%
same,"ΔOD/ml/min (BSA degradation, proteinase enzyme assay)",0.93 ΔOD/ml/min
B7,"% Inhibition (BSA degradation, proteinase enzyme assay)",82%
same,"ΔOD/ml/min (BSA degradation, proteinase enzyme assay)",0.46 ΔOD/ml/min
B8,"% Inhibition (BSA degradation, proteinase enzyme assay)",32%
same,"ΔOD/ml/min (BSA degradation, proteinase enzyme assay)",0.76 ΔOD/ml/min
B9,"% Inhibition (BSA degradation, proteinase enzyme assay)",61%
same,"ΔOD/ml/min (BSA degradation, proteinase enzyme assay)",0.7 ΔOD/ml/min
B10,"% Inhibition (BSA degradation, proteinase enzyme assay)",60%
same,"ΔOD/ml/min (BSA degradation, proteinase enzyme assay)",0.6 ΔOD/ml/min
B11,"% Inhibition (BSA degradation, proteinase enzyme assay)",0%
same,"ΔOD/ml/min (BSA degradation, proteinase enzyme assay)",1 ΔOD/ml/min
